Where “and” joins values, the source holds several entries; their conditions need not be identical. Equal values may be shown once.
How the values were obtained:
[1] = molecular target: endogenous cofilin (human (endogenous in platelets and HUVEC)) (UniProt P23528); assay: cross-linking; intact endothelial cells (HUVEC, also transfected) in suspension, BMOE or BMH 1 mM or DMSO, 37 °C, one hour; Laemmli lysis, SDS-PAGE, immunoblot
[2] = molecular target: endogenous cofilin (human (endogenous in platelets and HUVEC)) (UniProt P23528); assay: cross-linking; human washed platelets (resting, or stimulated with thrombin, with or without Y27632) lysed in NP-40 lysis buffer with BMOE or BMH (0.2 mM; 0.1 mM BMOE in Figure 7), 20 minutes on ice; immunoblot
[3] = molecular target: recombinant (His)6-tagged human cofilin (human) (UniProt P23528); assay: cross-linking; phosphorylated (by GST-LIMK2) and unphosphorylated His-cofilin (16 μg) cross-linked with 2 and 20 mM BMOE
[4] = molecular target: recombinant (His)6-tagged human cofilin (human) (UniProt P23528); assay: cross-linking; recombinant His-cofilin 10 µM to 40 µM in PBS pH 7.2, BMOE (two fold molar excess) or DMSO, one hour at room temperature; SDS-PAGE, Coomassie blue; oligomers only at >10 µM

Substance	stoichiometry N [1]	stoichiometry N [2]	stoichiometry N [3]	stoichiometry N [4]
endogenous cofilin (from UniProt P23528 1-166) (natural protein)	4	4	–	–
recombinant (His)6-tagged human cofilin (from UniProt P23528 1-166) (natural protein)	–	–	2 and 3	2 and 4 and 5

— paper PMC3738525
